Results on 2 molecules are retold here after publication PMC2667941.

Where two headings read alike, the source gives them in different places.

Data set [1] has as its target T1, human alpha-thrombin (Homo sapiens, UniProt P00734;P00734 328-363;364-622). Put plainly: gel filtration chromatography.
Data set [2] addresses T1, human alpha-thrombin. The data set can be described thus: gel filtration chromatography. This is another data set of the same source.

B1: ps-po-X on CdTe (same sequence as ps-po) (ssDNA)
DNA: TCCGCTGCAGAAAAATCGGGCGTAC
modifications: 9 phosphorothioate linkages, between the last 10 nt (T*C*G*G*G*C*G*T*A*C); rest phosphodiester
As to B1, the binding result with human alpha-thrombin [1] is listed as “no binding”.

B2: ps-po-TBA on CdTe (structured_DNA)
DNA: GGTTGGTGTGGTTGGAAAAATCGGGCGTAC
modifications: 9 phosphorothioate linkages, between the last 10 nt (T*C*G*G*G*C*G*T*A*C); rest phosphodiester
In the case of B2, the binding result with human alpha-thrombin [2] is given as “binds”.
